Assays:
[1] = molecular target: T1, human LEPR extracellular domain expressed with a C-terminal myc-myc-hexahistidine tag (hLEPR.mmh) (human, UniProt P48357 22-839); test: Luminex, myc-captured protein on beads
T1 construct: tag included in the entry; also called human LEPR-MMH; monomeric human LEPR
Procedure: (§1) Aliquots of microspheres with immobilized anti-myc monoclonal antibodies, prepared as described above, were added individually to 1 mL of the each of these protein supernatants. The microspheres were gently mixed, incubated for two hours at 25° C., washed twice with 1 mL of DBPS, centrifuged to remove the supernatant and finally resuspended in 1 mL of DPBS buffer. […] of anti-myc IgG coupled microspheres from individual reactions with full length human LEPR and with each of the human LEPR domain proteins were withdrawn and mixed together in 3.6 mL of PBS+20 mg/mL BSA+0.05% sodium azide (blocking buffer).
(§2) From this mixed pool, 75 μL of microspheres were plated per well on a 96 well filter plate (Millipore, Cat. No: MSBVN1250) and mixed with 25 μL of individual anti-human LEPR monoclonal antibodies (0.5 or 5 μg/mL), incubated for two hours at 25° C. and then washed twice with 200 μL of DPBS with 0.05% Tween 20 (washing buffer). […] After 30 minutes, the samples were washed twice with 200 µL of washing buffer and resuspended in 150 μL of wash buffer. The Median Fluorescence intensity (MFI) of the microspheres was measured in a Luminex Analyzer.

[2] = molecular target: T2, human LEPR Ig-CRH2-FNIII-MMH (human, UniProt P48357 330-839, limits assumed); test: Luminex, myc-captured protein on beads
T2 construct: domain: Ig-CRH2-FNIII
T2 sequence (looked up): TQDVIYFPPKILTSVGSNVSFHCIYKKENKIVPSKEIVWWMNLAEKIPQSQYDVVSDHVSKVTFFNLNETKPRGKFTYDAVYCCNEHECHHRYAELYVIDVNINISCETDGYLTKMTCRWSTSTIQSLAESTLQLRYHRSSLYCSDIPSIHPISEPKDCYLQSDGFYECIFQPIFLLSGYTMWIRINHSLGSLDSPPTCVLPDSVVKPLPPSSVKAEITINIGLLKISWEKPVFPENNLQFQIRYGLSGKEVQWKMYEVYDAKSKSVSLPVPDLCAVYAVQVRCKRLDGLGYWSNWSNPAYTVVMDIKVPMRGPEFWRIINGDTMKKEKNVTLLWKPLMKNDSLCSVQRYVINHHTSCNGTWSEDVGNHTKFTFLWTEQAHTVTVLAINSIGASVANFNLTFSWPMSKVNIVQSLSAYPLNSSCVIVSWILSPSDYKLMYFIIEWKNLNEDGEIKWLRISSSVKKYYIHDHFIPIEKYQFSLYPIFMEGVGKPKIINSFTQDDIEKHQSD
Procedure: as §1, §2

human LEPR FNIII-MMH = molecular target: T3, human LEPR FNIII-MMH (human, UniProt P48357 636-839, limits assumed); test: Luminex, myc-captured protein on beads
T3 construct: domain: FNIII
T3 sequence (looked up): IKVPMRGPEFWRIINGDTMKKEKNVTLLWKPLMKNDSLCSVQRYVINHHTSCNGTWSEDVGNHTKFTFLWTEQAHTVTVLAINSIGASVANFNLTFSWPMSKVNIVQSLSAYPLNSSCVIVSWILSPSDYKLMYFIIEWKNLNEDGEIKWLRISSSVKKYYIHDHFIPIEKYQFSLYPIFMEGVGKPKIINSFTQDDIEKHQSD
Procedure: as §1, §2

human LEPR CRH2-MMH = molecular target: T4, human LEPR CRH2-MMH (human, UniProt P48357 428-634, limits assumed); test: Luminex, myc-captured protein on beads
T4 construct: domain: CRH2
T4 sequence (looked up): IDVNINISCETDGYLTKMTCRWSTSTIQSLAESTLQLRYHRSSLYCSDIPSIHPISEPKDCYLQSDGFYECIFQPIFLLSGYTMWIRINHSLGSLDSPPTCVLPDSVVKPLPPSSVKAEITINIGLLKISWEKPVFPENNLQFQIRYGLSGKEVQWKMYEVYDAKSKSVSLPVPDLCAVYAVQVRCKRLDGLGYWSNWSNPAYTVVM
Procedure: as §1, §2

[3] = molecular target: T5, human LEPR CRH1-Ig (D1,D2,D3)-MMH (human, UniProt P48357 22-427, limits assumed); test: Luminex, myc-captured protein on beads
T5 construct: domain: CRH1-Ig (D1,D2,D3); also called human LEPR CRH1 (D1,D2,D3)-MMH
T5 sequence (looked up): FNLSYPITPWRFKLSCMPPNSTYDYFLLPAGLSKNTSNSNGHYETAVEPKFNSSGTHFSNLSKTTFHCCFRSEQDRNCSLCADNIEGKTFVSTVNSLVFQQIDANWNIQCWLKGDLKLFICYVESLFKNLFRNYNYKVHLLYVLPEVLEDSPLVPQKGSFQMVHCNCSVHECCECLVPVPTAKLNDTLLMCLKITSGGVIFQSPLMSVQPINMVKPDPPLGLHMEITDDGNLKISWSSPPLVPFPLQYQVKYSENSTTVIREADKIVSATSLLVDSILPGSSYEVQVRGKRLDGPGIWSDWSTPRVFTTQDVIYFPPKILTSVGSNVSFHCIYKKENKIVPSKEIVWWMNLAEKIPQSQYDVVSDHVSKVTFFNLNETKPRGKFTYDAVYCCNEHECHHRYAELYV
Procedure: as §1, §2

[4] = molecular target: T6, human LEPR CRH1 (D1,D2)-MMH (human, UniProt P48357 22-339, limits assumed); test: Luminex, myc-captured protein on beads
T6 construct: domain: CRH1 (D1,D2)
T6 sequence (looked up): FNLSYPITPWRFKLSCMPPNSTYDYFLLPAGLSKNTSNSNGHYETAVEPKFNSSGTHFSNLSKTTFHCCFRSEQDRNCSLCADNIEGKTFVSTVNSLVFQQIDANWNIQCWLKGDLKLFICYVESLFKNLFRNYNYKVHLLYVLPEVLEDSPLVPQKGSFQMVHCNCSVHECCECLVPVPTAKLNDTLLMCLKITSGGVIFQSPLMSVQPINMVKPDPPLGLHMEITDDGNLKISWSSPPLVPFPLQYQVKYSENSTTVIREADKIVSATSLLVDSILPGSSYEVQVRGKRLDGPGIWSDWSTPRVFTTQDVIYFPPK
Procedure: as §1, §2

[5] = molecular target: T7, extracellular domain portion of LEPR protein expressed with a C-terminal human Fc tag (hLEPR.hFc) (human); test: blocking ELISA, hLeptin coated
T7 construct: also called dimeric human LEPR
Procedure: These antibody-protein or protein-protein complexes were then incubated for 1.5 hour at room temperature (RT). […] Samples were developed with a TMB solution (BD Biosciences, #555214; substrate A and B mixed at 1:1 ratio as per manufacturer's instructions) to produce a colorimetric reaction and then neutralized with 1M sulfuric acid before measuring absorbance at 450 nm on a Victor X5 plate reader.
Data analysis was performed using a sigmoidal dose-response model within Prism™ software (GraphPad).

Binder | Luminex MFI [1] [MFI] | Luminex MFI [2] [MFI] | Luminex MFI (human LEPR FNIII-MMH) [MFI] | Luminex MFI (human LEPR CRH2-MMH) [MFI] | Luminex MFI [3] [MFI] | Luminex MFI [4] [MFI] | 500 nM Ab Blocking of 10 nM hLEPR.hFc Binding to hLeptin (% blockade) [5] [%]
H4H16679P2 (antibody, V domains shown) VH: QVQLVESGGGVVQPGRSLRLSCTASGFTFSSYAMYWVRQAPGKGLEWVSVIYYDGSYKYYADSVKGRFTISRDNSKNTLYLQMDSLRAEDTAVYYCASYNWNYWYFDFWGRGTLVTVSS VL: not shown | 7510 | 42 | 10 | 33 | 2800 | 4390 | 7
H4H17321P2 (antibody, V domains shown) VH: QVQLVESGGGVVQPGRSLRLSCEASGFSSSDNAMYWVRQAPGKGLEWVSVIYHDGSYKYYEDSVKGRFTIARDNSKNTLYLQMNSLRAEDTAVYYCARYNWNHWYFDVWGRGTLVTVSS VL: not shown | 4700 | 14 | 40 | 116 | 1750 | 2650 | 6
H4H16650P2 (antibody, V domains shown) VH: QVQLVESGGGVVQPGKSLRLSCVASGFTFSSDAMYWVRQAPGKGLEWVAVIYYDGNYQYYEDSVKGRFTISRDNSQNTLDLQMNSLRVDDTAVYFCARLNWDYWYLDLWGRGTLVTVSS VL: not shown | 7600 | 110 | 6 | 16 | 2560 | 4720 | -7
H4H17319P2 (antibody, V domains shown, also called REGN4461) VH: QVQLVESGGSVVQPGRSLRLSCAASGFTFSTYAMYWVRQTPGKGLEWVAVLYSDGSNKYYIDSVKGRFTISRDTSTNTLYLQMSSLRADDSALYYCARLNWDYWYFDLWGRGTLVTVSS VL: not shown | 3300 | 8 | 20 | 91 | 938 | 1250 | 9

The next lines start with the values.

Luminex MFI [1] [MFI] | Luminex MFI [2] [MFI] | Luminex MFI (human LEPR FNIII-MMH) [MFI] | Luminex MFI (human LEPR CRH2-MMH) [MFI] | Luminex MFI [3] [MFI] | Luminex MFI [4] [MFI] | 500 nM Ab Blocking of 10 nM hLEPR.hFc Binding to hLeptin (% blockade) [5] [%] | Binder
7980 | 43 | 13 | 15 | 2060 | 2930 | 8 | H4H18449P2 (antibody, human IgG4, V domains shown, human IgG4 Fc) VH: EVQLVESGGGLVQPGGSLRLSCVASGFTFNKYDMHWVRQTTGKGLEWVSGIDTDGDTYYPGSVKGRFTISRENAENSLYLQMNGLRVGDTAVYYCARWPWSGFYGAFDIWGQGTMVTVSS VL: not shown
4890 | 37 | 14 | 39 | 3330 | 16000 | 16 | H4H18417P2 (antibody, V domains shown) VH: QVQLVESGGGVVQPGRSLRLSCAASGFTFSTYGMHWVRQAPGKGLEWVSVISYDESNKYYADSVKGRFTISRDNSKNALYLQMNSLRNEDTAVYYCARDRPFGLVTGWFDPWGQGTLVTVSS VL: not shown
6250 | – | 25 | – | 6570 | 18900 | 15 | H4H18438P2 (antibody, V domains shown) VH: QVQLVESGGGVVQPGRSLRLSCAASGFSFNTYGMHWVRQAPGKGLEWVTIIWYDGSIKYYADSVKGRFTISRDNSKNTLYLQMNSLRAEDTAVYYCARGGYSGYLYFDYWGQGTLVTVSS VL: not shown
6570 | 14500 | 230 | 17 | 22 | 30 | 28 | H4H18445P2 (antibody, human IgG4, V domains shown, human IgG4 Fc) VH: QVQLQESGPGLVKPSQTLSLTCTVSGGSISSGGDYWSWIRQLPGKGLEWIGYIYYSGSAYYNPSLKSRGTISIDTSKNQFSLKLTSVTAADTAVYFCVKLRFLEWFLGGWFGPWGQGTLVTVSS VL: not shown
10500 | 16900 | 32 | 65 | – | 682 | -5 | H4H18446P2 (antibody, human IgG4, V domains shown, human IgG4 Fc) VH: EVQLVESGGGLVQPGGSLRLSCAASGFTFSNYGMTWVRQAPGKGLEWVSAITGGGGSTYYSNSVKGRFTISRDNSKNTVYLRMNSVRAEDTAVYYCAKYKWNFVDDWGQGTTVTVSS VL: not shown

Source: patent US20190309079A1 (Regeneron, published 2019)
